Experiments:
[1] = biological target: T1, human PCSK9 (self-cleaved, mature, secreted PCSK9 comprising amino acids 31 to 692 of SEQ ID NO: 2) (human, UniProt Q8NBP7 31-692, biotinylated in the ELISAs); assay: ELISA, sup 1:125, expt 1
T1 construct: Limits 31-692 are stated for the immunogen; the assays only say human PCSK9; also called huPCSK9; rhu PCSK9

[2] = biological target: T1, human PCSK9 (self-cleaved, mature, …); assay: ELISA, sup 1:125, expt 2
[3] = biological target: T1, human PCSK9 (self-cleaved, mature, …); assay: ELISA, sup 1:625, expt 1
[4] = biological target: T1, human PCSK9 (self-cleaved, mature, …); assay: ELISA, sup 1:625, expt 2
[5] = biological target: T1, human PCSK9 (self-cleaved, mature, …); assay: ELISA pH 6, sup 1:125, expt 1
[6] = biological target: T1, human PCSK9 (self-cleaved, mature, …); assay: ELISA pH 6, sup 1:125, expt 2
[7] = biological target: T1, human PCSK9 (self-cleaved, mature, …); assay: ELISA pH 6, sup 1:625, expt 1
[8] = biological target: T1, human PCSK9 (self-cleaved, mature, …); assay: ELISA pH 6, sup 1:625, expt 2
[9] = biological target: T1, human PCSK9 (self-cleaved, mature, …); assay: ELISA pH 7.4, sup 1:125, expt 1
[10] = biological target: T1, human PCSK9 (self-cleaved, mature, …); assay: ELISA pH 7.4, sup 1:125, expt 2
[11] = biological target: T1, human PCSK9 (self-cleaved, mature, …); assay: ELISA pH 7.4, sup 1:625, expt 1
[12] = biological target: T1, human PCSK9 (self-cleaved, mature, …); assay: ELISA pH 7.4, sup 1:625, expt 2
[13] = biological target: T2, human D374Y PCSK9 (human, UniProt Q8NBP7 31-692, limits assumed, biotinylated in the blocking ELISA); assay: ELISA, blocking of biotin-D374Y PCSK9 binding to LDLR, expt. #1
T2 construct: also called D374Y PCSK9 mutant; biotinylated human D374Y PCSK9

[14] = biological target: T2, human D374Y PCSK9; assay: ELISA, blocking of biotin-D374Y PCSK9 binding to LDLR, expt. #2
[15] = biological target: T1, human PCSK9 (self-cleaved, mature, …); assay: ELISA, supernatant on captured biotin-PCSK9, late primary screen
[16] = biological target: T1, human PCSK9 (self-cleaved, mature, …); assay: ELISA, supernatant on captured biotin-PCSK9, early primary screen
[17] = biological target: T1, human PCSK9 (self-cleaved, mature, …); assay: solution equilibrium
[18] = biological target: T1, human PCSK9 (self-cleaved, mature, …); assay: solution equilibrium, BIAcore, pH 5.5
[19] = biological target: T1, human PCSK9 (self-cleaved, mature, …); assay: solution equilibrium, KinExA or BIAcore, pH 7.4

Binder	OD diff (pH 7.4 - pH 6) [1] [OD]	OD diff (pH 7.4 - pH 6) [2] [OD]	OD diff (pH 7.4 - pH 6) [3] [OD]	OD diff (pH 7.4 - pH 6) [4] [OD]	OD 450 nm [5] [OD]	OD 450 nm [6] [OD]	OD 450 nm [7] [OD]	OD 450 nm [8] [OD]	OD 450 nm [9] [OD]	OD 450 nm [10] [OD]	OD 450 nm [11] [OD]	OD 450 nm [12] [OD]	% Inhibition [13] [%]	% Inhibition [14] [%]	OD 450 nm [15] [OD]	OD 450 nm [16] [OD]	pH 5.5/7.4 KD ratio [17]	Kd [18] [nM]	Kd [19] [nM]
20D12 (antibody, human IgG2, lambda, V domains shown, tested as hybridoma supernatant) VH: QVQLQQWGAGLLKPSETLSLTCAVSGGSFRAYYWNWIRQPPGKGLEWIGEINHSGRTDYNPSLKSRVTISVDTSKNQFSLKLSSVTAADTAVYYCARGQLVPFDYWGQGTLVTVSS VL: not shown	1.2	1.3	1.6	0.7	3	2.8	0.9	0.8	4.2	4.1	2.5	1.5	91	92	4.2	6	–	–	–
SS-15005 (antibody, IgG2, V domains shown, also called 25G4) VH: EVQLLESGGGLVQPGGSLRLSCAASGFTFSSYAMNWVRQAPGKGLEWVSTISGSGGNTYYADSVKGRFTISRDNSKNTLYLQMNSLRAEDTAVYYCAKKFVLMVYAMLDYWGQGTLVTVSS VL: DIQMTQSPSSLSASVGDRVTITCRASQSISIYLNWYQQKPGKAPYLLIYAAASLQSGVPSRFSGSGSGTDFTLTISSLQPEDFATYYCQQSYSAPITFGQGTRLEIKR	–	–	–	–	–	–	–	–	–	–	–	–	–	–	–	–	1.9	0.15	0.078
19A12 (antibody, human IgG2, kappa, V domains shown, tested as hybridoma supernatant) VH: QVQLVESGGGVVQPGRSLRLSCAASGFTFSSYGMHWVRQAPGKGLEWVAVIWYDGSNKYYADSVKGRFTISRDNSKNTLYLQMNSLRAEDTAVYYCVRDRGLDWGQGTLVTVSS VL: not shown	0.7	1.4	1.2	0.7	2.9	2.5	1.9	1.8	3.6	3.9	3	2.5	89	91	3.8	3.7	–	–	–
25B5 (antibody, human IgG2, lambda, V domains shown, tested as hybridoma supernatant) VH: QIQLVQSGAEVKKPGASVKVSCKASGYTLTSYGISWVRQAPGQGLEWMGWISFYNGNTNYAQKVQGRVTMTTDTSTSTVYMELRSLRSDDTAVYFCARGYGMDVWGQGTTVTVSS VL: QSALTQPASVSGSPGQSITISCTGTSSDVGGYNSVSWYQQHPGKPPKLMIYEVSNRPSGISNRFSGSKSGNTASLTISGLQAEDEADYFCSSYTSTSMVFGGGTKLAVLR	0.8	0.9	0.3	0	1.3	1.7	0.5	0.5	2.1	2.6	0.8	0.5	94	93	4.3	6	–	–	–
13G9 (antibody, human IgG2, lambda, V domains shown, tested as hybridoma supernatant) VH: QVQLVQSGAEVTKPGASVKVSCKASGYTFTSYGISWVRQAPGQGLEWMGWISVYKGNTNYAQKLQGRVTMTTDTSTSTAYMELRSLRSDDTAVYYCARNYQIFSFDYWGQGTLVTVSS VL: QSVLTQPPSVSGAPGQRVTISCTGSRSNIGAGYDVNWYQQLPGTAPKLLIYGNSNRPSGVPDRFSGSKSGTSASLVITGLQAEDEADYYCQSYDSNLSGSVFGGGTKLTVLG	2.2	1.8	1.5	-0.6	3.8	4.2	2	1.6	6	6	3.4	1	62	77	3.6	3.8	–	–	–

Source: US20160032014A1 (Amgen, published 2016)
